The values that follow are results of earlier work, collected in paper PMC2853182.

This series deals with Protective antigen (PA) (Bacillus anthracis) (UniProt P13423).

Regarding “CMG2 soluble domain (from UniProt P58335)”, the Kd (in general, a measure of binding affinity in units of concentration) was 2 nM.
